Data as given in article PMC7472852, “The Phosphatase PP2A Interacts With ArnA and ArnB to Regulate the Oligomeric State and the Stability of the ArnA/B Complex” (Frontiers in Microbiology, 2020).
Blank lines part the entries; values can stand above or below the molecule they belong to.

B1: N-terminally Strep-tagged ArnA (natural protein, S. acidocaldarius, UniProt Q4J9H4 1-206, looked up)
chain: MTWKCNLCGYENDDDALFCIKCGAQKSSEAQQLPQQQPSEPQAQGVVTQQQVVTNPPVQAQVATPQQPAQQPVLPQPEPAQPQPVSSTPAPQQASQPTNRYYIYFIQTPNENLVNKKVLLNFDLFPSVSMGRSPENIVIVPDSEVSRKHAVIYLDNSELYIEDLNSTNGTYVYDGKQFTPIKGKQKIEPNSIIKLGNQTIVRILKE
notes: ArnA of Sulfolobus acidocaldarius; printed molecular mass of Strep-ArnA 26.8 kDa; also called Strep-ArnA; source: E. coli Rosetta (DE3)/pLysS, purified (heat step, streptavidin beads, SEC); not shown: Strep II, N-terminal, kept
B2: C-terminally His-tagged ArnB (natural protein, S. acidocaldarius, UniProt Q4J9H3 1-380, looked up)
chain: MTISVKAELSHKYSFTSPLKGVFRLIIVPEKVSTARGFHYIILLDTSGSMYGVKIETAKQGAMELLSRIPEGNKISFLTFSNNVNILSEYADAPSLVQQIKQIRSGGQTVLYRALERAIEIAKKHDLPGYIILLTDGQPTDVPETDAYEKLNYPEAYKVIAFGIGDDYNERLLKVITDKTAGILYHVEDAKEIAEMLPQSAVTEIGAKNVSIDIVSETQVKLLNYPGPPVKLGAVESVVRVYGEIIIPPNFTGRLATVKISYEDPLSSRINRLEVNFDITRANDVKRFLDGINNDLVNEYRYYELMSKLANQLNSNNLSEATRTVEQMQMIAQQTRRMELIETTRRISESIETTRRIGTVEQTRKISKEITSEVTKKLRS
notes: ArnB of Sulfolobus acidocaldarius; printed molecular mass of ArnB-His 43.6 kDa; also called ArnB-His; source: E. coli Rosetta (DE3)/pLysS, purified (heat step, Ni-NTA, SEC); not shown: His, C-terminal, kept
B3: phosphorylated ArnA/B complex (complex, S. acidocaldarius)
chain 1: B1 chain
chain 2: B2 chain
modifications: phosphorylated in vitro by the kinase ArnC (sites not given) | phosphorylated in vitro by the kinase ArnC (sites not given)
notes: ArnA of Sulfolobus acidocaldarius; ArnB of Sulfolobus acidocaldarius; Same tag uncertainty as m13; ArnB is the chain that is mainly phosphorylated in the complex; also called phosphorylated oligomeric ArnA/B complex; (ArnA/B)2; source: reconstituted ArnA/B complex (E. coli proteins, SEC-isolated) incubated with ArnC, ATP and Mn2+ at 55°C for 30 min

Columns and labels:
[1] = biological target: His-tagged ArnA (S. acidocaldarius); experiment: mass photometry; Refeyn OneMP, 20-100 nM protein in 50 mM Tris pH 8.0, 150 mM NaCl; SEC fractions of ArnA, ArnB, ArnA/B complex and phosphorylated ArnA/B complex
[2] = biological target: the molecule itself; experiment: SEC; Superdex 200 (16/600), 50 mM Tris pH 8, 150 mM NaCl; equal amounts of ArnA and ArnB mixed and kept on ice for 1 h; fractions on SDS-PAGE; stoichiometry concluded from SEC and mass photometry together
[3] = biological target: B1; experiment: as above; details: both partners purified
[4] = biological target: the molecule itself; experiment: mass photometry; Refeyn OneMP, 20-100 nM protein in 50 mM Tris pH 8.0, 150 mM NaCl; SEC fractions of ArnA, ArnB, ArnA/B complex and phosphorylated ArnA/B complex

stoichiometry N [1]: 2
Molecule: His-tagged ArnA (natural protein)

Molecule: B1
stoichiometry N [2]: 2

Molecule: B2
stoichiometry N [3]: 1
stoichiometry N [1]: 1

Molecule: B3
stoichiometry N [4]: 2 ArnA/B heterodimers per complex
